{
  "source": "patent US20090018101",
  "key": {"[1]": {"system": "M.BcnIB (DNA cytosine-N4 methyltransferase)", "settings": "natural cofactor AdoMet; R.BcnI protection assay, 37 C; analogs 3-5: <7, 6: 0, 7: 28, 8: 14"}, "[2]": {"system": "M.SssI Q142A (DNA cytosine-C5 methyltransferase) Q142A (Spiroplasma sp.?)", "settings": "natural cofactor AdoMet; R.BstUI protection assay, 37 C; analogs 5: 1.2, 7: 0.6"}, "[3]": {"target": "M.TaqI (DNA adenine-N6 methyltransferase) (UniProt P14385)", "sequence (P14385 whole entry)": "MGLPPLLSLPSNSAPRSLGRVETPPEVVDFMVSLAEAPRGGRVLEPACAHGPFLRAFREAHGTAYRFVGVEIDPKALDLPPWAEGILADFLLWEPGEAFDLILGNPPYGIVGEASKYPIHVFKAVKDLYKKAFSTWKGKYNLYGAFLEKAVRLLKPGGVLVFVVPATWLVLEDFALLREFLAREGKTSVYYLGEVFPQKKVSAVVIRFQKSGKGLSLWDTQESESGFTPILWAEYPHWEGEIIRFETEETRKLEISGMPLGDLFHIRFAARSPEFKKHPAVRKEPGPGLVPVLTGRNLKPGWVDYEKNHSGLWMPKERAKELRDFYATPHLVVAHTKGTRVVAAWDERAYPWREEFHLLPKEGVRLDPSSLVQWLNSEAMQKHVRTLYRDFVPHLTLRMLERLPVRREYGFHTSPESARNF", "settings": "natural cofactor AdoMet; R.TaqI protection assay, 60 C 4 h; analogs 3: 10, 4: <5, 5: 80, 6: 10, 7: 1280, 8: 640, 9: 640; cofactor 10: 11 u/ug (1 h)"}, "[4]": {"system": "M.TaqI V21G V21G", "settings": "natural cofactor AdoMet; R.TaqI protection assay; analogs 3: 5, 4: <5, 5: 640, 6: 20, 7: 80, 8: 80, 9: 2560"}, "[5]": {"system": "M.HhaI (DNA cytosine-C5 methyltransferase)", "settings": "natural cofactor AdoMet; R.Hin6I protection assay, 37 C; analogs 3: <4, 4: 0, 5: 7, 6: <4, 7: 29, 8: <4"}, "[6]": {"target": "T1, M.HhaI Q82A Q82A (UniProt P05102)", "T1 sequence": "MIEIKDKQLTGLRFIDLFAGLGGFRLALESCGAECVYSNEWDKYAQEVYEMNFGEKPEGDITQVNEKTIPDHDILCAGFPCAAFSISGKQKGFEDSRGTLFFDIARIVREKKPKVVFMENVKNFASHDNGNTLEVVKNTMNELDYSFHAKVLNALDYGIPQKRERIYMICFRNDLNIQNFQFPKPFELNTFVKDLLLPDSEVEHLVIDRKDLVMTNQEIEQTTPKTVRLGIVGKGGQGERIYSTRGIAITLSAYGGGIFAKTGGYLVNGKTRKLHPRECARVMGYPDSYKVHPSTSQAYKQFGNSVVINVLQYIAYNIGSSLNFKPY", "settings": "natural cofactor AdoMet; R.Hin6I protection assay; analogs 3: 7, 4: 0, 5: 29, 6: <4, 7: 58, 8: <4"}},
  "data": [
    {"substance": "phage lambda DNA (48502 bp)", "values": [
      {"measurement": "activity", "setting": "[1]", "value": 444, "unit": "u/µg"},
      {"measurement": "activity", "setting": "[2]", "value": 20, "unit": "u/µg"},
      {"measurement": "activity", "setting": "[3]", "value": 41000, "unit": "u/µg"},
      {"measurement": "activity", "setting": "[4]", "value": 320, "unit": "u/µg"},
      {"measurement": "activity", "setting": "[5]", "value": 460, "unit": "u/µg"},
      {"measurement": "activity", "setting": "[6]", "value": 115, "unit": "u/µg"}
    ]}
  ]
}
